Experimental findings from doi:10.1101/2024.02.15.580496 (bioRxiv, 2024) are described below.

The data set concerns the molecule itself. The experiment in a line: SEC-MALS. On the technique in general: SEC sorts molecules by how far they enter the pores of the column.

B1: Lip-VIN3VEL (residues 500-603), wild type (domain or fragment)
chain: GKQGGNKRFKSRTVSLNEKPEINNAANGVGDKDLGHIVKTIRCLEEEGHIDKSFRERFLTWYSLRATHREVRVVKIFVETFMEDLSSLGQQLVDTFSESILSKR
In the case of B1, the binding result is “binds”.

B2: Lip-VIN3VEL (residues 500-603) I575T (domain or fragment)
chain: GKQGGNKRFKSRTVSLNEKPEINNAANGVGDKDLGHIVKTIRCLEEEGHIDKSFRERFLTWYSLRATHREVRVVKTFVETFMEDLSSLGQQLVDTFSESILSKR
Consider B2, for which the binding result is on record as “binds”.
